Target: insulin (UniProt P01308;P01308 25-54;90-110)
Test: circular dichroism; 20 uM aptamer, 100 nM insulin; G4 spectrum (min 245 nm, max 275 nm) after interaction with insulin; Binding buffer 20 mM Tris-HCl, 140 mM NaCl, 5 mM KCl, 1 mM CaCl2, 1 mM MgCl2, pH 7.4, room temperature, 40-60 min; then hemin in DMSO 1 h and TMB-H2O2; random N30 control is a pool and not listed
Details: protein: commercial, copies: 1;1, label: 5' biotin

Sequence of insulin (P01308 25-54, chain 1 of 2): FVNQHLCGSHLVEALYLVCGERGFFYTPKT
Sequence of insulin (P01308 90-110, chain 2 of 2): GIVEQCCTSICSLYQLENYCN

B1: G-quadruplex insulin aptamer (G-rich aptamer) (structured_DNA)
DNA: GGTGGTGGGGGGGGTTGGTAGGGTGTCTTC
  binding result: binds
